This note sets out measurements from US20180222975A1 (ELEVEN BIOTHERAPEUTICS, published 2018).

For assay [1], the target named is T1, human IL-6 (human, UniProt P05231 30-212).
T1 construct: also called IL-6 (R&D Systems, cat# 206-IL/CF); biotinylated human IL-6
Briefly: ELISA, hybridoma supernatant on plates coated with human IL-6. The method, then:
Hybridoma supernatants were screened for IL-6 binding and antagonism. For the binding ELISA, Costar 9018 plates were coated with 1 μg/mL human IL-6 in PBS overnight at 4° C. Wells were blocked with PBS containing 2% BSA, washed, and then incubated with 50 μL of each hybridoma supernatant diluted 1:2 with PBS containing 2% BSA. After 60 minutes, wells were washed three times with 300 μl PBS containing 0.1% Tween-20. Anti-mouse-HRP diluted 1:3000 in PBS-BSA was then added to each well and incubated for 30 minutes. Wells were washed as above then 3,3′,5,5′-tetramethylbenzidine (TMB) substrate was added and the signal measured at 450 and 550 nm. For antagonism studies, HEK-Blue™-IL6 reporter cells (InvivoGen. San Diego, Calif.) were incubated with increasing concentrations of human IL-6 in the presence of 1:10 diluted hybridoma supernatant. After 20-24 hours, 20 μl of supernatant was mixed with 180 μl QuantiBlue™ (InvivoGen) and the absorbance measured at 655 nm.
Background: ELISA stands for enzyme-linked immunosorbent assay.

Assay [2] concerns the target T1, human IL-6. Briefly: ELISA, blocking of IL-6/IL-6Rα complex binding to gp130.
In assay [3] the target is T2, rat IL-6 (rat, UniProt P20607 25-211).
T2 construct: also called rodent IL-6
T2 sequence (looked up): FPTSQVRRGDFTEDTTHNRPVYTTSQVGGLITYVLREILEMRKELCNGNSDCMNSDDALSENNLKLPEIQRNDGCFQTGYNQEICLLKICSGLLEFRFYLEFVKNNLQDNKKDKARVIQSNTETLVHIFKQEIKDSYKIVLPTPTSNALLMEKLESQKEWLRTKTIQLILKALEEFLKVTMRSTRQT
Kind of assay: monovalent affinity.

Assay [4] concerns the target T3, mouse IL-6 (mouse, UniProt P08505 25-211).
T3 construct: also called rodent IL-6
T3 sequence (looked up): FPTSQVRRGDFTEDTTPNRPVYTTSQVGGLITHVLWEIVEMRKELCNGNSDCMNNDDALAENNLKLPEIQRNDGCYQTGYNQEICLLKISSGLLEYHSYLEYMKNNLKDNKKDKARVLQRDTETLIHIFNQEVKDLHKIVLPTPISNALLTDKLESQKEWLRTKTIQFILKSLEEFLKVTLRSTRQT
Briefly: monovalent affinity.

Assay [5] concerns the target T4, rabbit IL-6 (rabbit, UniProt Q9MZR1 27-241, limits assumed).
T4 sequence (looked up): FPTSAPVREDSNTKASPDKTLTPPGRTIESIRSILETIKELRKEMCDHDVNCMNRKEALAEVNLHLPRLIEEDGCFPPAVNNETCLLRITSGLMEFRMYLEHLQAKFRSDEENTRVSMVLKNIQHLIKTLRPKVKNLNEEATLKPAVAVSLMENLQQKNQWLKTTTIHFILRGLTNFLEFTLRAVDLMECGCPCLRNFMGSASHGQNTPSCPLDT
Briefly: monovalent affinity.

The target in assay [6] is T5, dog IL-6 (dog, UniProt P41323 21-207, limits assumed).
T5 construct: also called canine IL-6
T5 sequence (looked up): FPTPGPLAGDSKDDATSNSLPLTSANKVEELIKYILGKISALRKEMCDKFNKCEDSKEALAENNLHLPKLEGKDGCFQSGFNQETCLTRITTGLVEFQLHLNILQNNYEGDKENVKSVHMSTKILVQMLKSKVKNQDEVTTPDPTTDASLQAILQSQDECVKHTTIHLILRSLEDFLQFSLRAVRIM
Kind of assay: monovalent affinity.

Assay [7] addresses African green monkey IL-6 (African green monkey). Kind of assay: monovalent affinity.
The target in assay [8] is T1, human IL-6. Briefly: affinity tested using the yeast system; original humanized h64, before affinity maturation; yeast system.

B1: murine 64 antibody (antibody, V domains shown)
VH: QVQLQQSGAELVRPGTSVKVSCKASGYAFSNYLIEWVKQRPGQGLEWIGVITPGSGTINYNEKFKGKAVLTADKSSSTVYMQLSSLTSDDSAVYFCAKSRWDPLYYYALEYWGQGTSVTVSS
VL: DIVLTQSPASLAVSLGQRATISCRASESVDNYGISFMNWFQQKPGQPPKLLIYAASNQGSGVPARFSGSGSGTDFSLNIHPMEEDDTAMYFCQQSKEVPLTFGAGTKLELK
notes: Murine monoclonal; also called hybridoma 64; m64
As for B1, the binding result in assay [1] was “binds”.

B2: chimeric murine 64 antibody (antibody, V domains shown)
VH: QVQLQQSGAELVRPGTSVKVSCKASGYAFSNYLIEWVKQRPGQGLEWIGVITPGSGTINYNEKFKGKAVLTADKSSSTVYMQLSSLTSDDSAVYFCAKSRWDPLYYYALEYWGQGTSVTVSS
VL: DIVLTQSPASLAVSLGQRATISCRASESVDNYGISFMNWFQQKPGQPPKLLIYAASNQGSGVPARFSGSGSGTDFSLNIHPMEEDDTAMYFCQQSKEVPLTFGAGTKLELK
notes: constant regions not described
As to B2, the binding result in assay [2] was “binds”.

B3: 018 Fab (Fab, V domains shown)
VH: QVQLVQSGAEVKKPGSSVKVSCKASGYALSNYLIEWVRQAPGQGLEWMGVITPGSGTINYAQKFQGRVTITADESTSTAYMELSSLRSEDTAVYYCARSRWDPLYYYALEYWGQGTTVTVSS
VL: DIVMTQSPDSLAVSLGERATINCRASESVDNYGIPFMNWYQQKPGQPPKLLIYAASNRGSGVPDRFSGSGSGTDFTLTISSLQAEDVAVYYCQQSEEVPLTFGQGTKLEIKR
notes: Fab with CK and IgG1 CH1 domains; also called Fab fragment of the h64-1,4 humanized antibody
Broadly, the Kd is the equilibrium constant for the complex coming apart. Take B3: the Kd was more than 1 µM in assay [3]; more than 1 µM in assay [4]; more than 1 µM in assay [5]; more than 1 µM in assay [6]; 0.00028 µM in assay [7].

B4: h64 IgG (antibody, V domains shown)
VH: QVQLVQSGAEVKKPGSSVKVSCKASGYAFSNYLIEWVRQAPGQGLEWMGVITPGSGTINYAQKFQGRVTITADESTSTAYMELSSLRSEDTAVYYCARSRWDPLYYYALEYWGQGTTVTVSS
VL: DIVMTQSPDSLAVSLGERATINCRASESVDNYGISFMNWYQQKPGQPPKLLIYAASNQGSGVPDRFSGSGSGTDFTLTISSLQAEDVAVYYCQQSKEVPLTFGQGTKLEIK
notes: also called original h64 antibody; original humanized molecule
For the molecule B4, the Kd in assay [8] is 0.000343 µM.
